Assay results published in publication PMC9799976.

Experiments:
[1] = target: full-length human dynein complex (heavy chain with SNAP-tag, IC, LIC, Tctex, LC8, Robl) (human) (UniProt Q14204); experiment: single-molecule TIRF microscopy; DDJ complexes assembled with equal amounts of dynein labeled with TMR and Alexa 647, without N-DCX; two-colour colocalisation of moving molecules
[2] = target: fluorescently labelled, biotinylated, taxol-stabilised microtubules for the TIRF assays; experiment: single-molecule TIRF microscopy; TIRF landing assay: MTs immobilised on the coverslip, GFP-tagged single-head dynein in motility buffer, 2 mM AMPPNP, without DCX; set-up: landing rate on MTs: unit not given here
fluorescently labelled, biotinylated, taxol-stabilised microtubules for the TIRF assays, sequence (chain, as listed by the source, chain 1 of 2): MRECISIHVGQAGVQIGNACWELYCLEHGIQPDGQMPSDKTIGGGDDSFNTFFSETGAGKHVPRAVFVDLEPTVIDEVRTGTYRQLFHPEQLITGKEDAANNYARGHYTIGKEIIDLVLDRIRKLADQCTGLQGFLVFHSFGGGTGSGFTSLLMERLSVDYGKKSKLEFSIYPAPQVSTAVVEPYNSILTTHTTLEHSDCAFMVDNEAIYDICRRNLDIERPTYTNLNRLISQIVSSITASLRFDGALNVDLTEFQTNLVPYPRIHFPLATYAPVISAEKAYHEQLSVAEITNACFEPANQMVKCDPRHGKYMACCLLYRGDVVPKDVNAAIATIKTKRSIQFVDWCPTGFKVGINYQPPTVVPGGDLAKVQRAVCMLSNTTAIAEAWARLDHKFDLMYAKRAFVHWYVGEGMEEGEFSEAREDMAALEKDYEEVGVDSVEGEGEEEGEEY
fluorescently labelled, biotinylated, taxol-stabilised microtubules for the TIRF assays, sequence (chain, as listed by the source, chain 2 of 2): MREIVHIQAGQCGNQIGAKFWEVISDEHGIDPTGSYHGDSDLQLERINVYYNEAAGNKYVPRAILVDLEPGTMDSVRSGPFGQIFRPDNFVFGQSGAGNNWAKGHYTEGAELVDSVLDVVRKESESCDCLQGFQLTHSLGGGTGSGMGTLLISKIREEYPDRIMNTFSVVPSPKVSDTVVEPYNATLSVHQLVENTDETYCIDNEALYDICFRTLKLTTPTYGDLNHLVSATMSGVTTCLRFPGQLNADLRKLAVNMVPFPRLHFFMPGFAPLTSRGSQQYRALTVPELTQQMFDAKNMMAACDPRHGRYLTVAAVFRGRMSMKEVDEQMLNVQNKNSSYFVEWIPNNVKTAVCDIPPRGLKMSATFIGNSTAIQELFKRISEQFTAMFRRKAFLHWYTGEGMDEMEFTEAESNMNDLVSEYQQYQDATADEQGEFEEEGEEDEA

[3] = target: fluorescently labelled, biotinylated, taxol-stabilised microtubules for the TIRF assays
[4] = target: fluorescently labelled, biotinylated, taxol-stabilised microtubules for the TIRF assays; experiment: single-molecule TIRF microscopy; TIRF landing assay: MTs immobilised on the coverslip, GFP-tagged single-head dynein in motility buffer, 2 mM ADP and 0.05 U/µl hexokinase, with DCX; set-up: landing rate on MTs: unit not given here
[5] = target: fluorescently labelled, biotinylated, taxol-stabilised microtubules for the TIRF assays; experiment: single-molecule TIRF microscopy; TIRF landing assay: MTs immobilised on the coverslip, GFP-tagged single-head dynein in motility buffer, 2 mM AMPPNP, with DCX; set-up: landing rate on MTs: unit not given here
[6] = target: fluorescently labelled, biotinylated, taxol-stabilised microtubules for the TIRF assays; experiment: single-molecule TIRF microscopy; TIRF landing assay: MTs immobilised on the coverslip, GFP-tagged single-head dynein in motility buffer, 2 mM ATP, without DCX; set-up: landing rate on MTs: unit not given here
[7] = target: fluorescently labelled, biotinylated, taxol-stabilised microtubules for the TIRF assays; experiment: single-molecule TIRF microscopy; TIRF landing assay: MTs immobilised on the coverslip, GFP-tagged single-head dynein in motility buffer, 2 mM ATP, with DCX; set-up: landing rate on MTs: unit not given here
[8] = target: fluorescently labelled, biotinylated, taxol-stabilised microtubules for the TIRF assays; experiment: single-molecule TIRF microscopy; TIRF landing assay: MTs immobilised on the coverslip, GFP-tagged single-head dynein in motility buffer, 2 mM ADP and 0.05 U/µl hexokinase, without DCX; set-up: landing rate on MTs: unit not given here

| fraction of colocalization of two differently labeled dyneins in moving DDJ complexes [1] | dwell time on MTs (median) [2] | landing rate on MTs [2] | velocity of MT gliding powered by surface-bound single-headed dynein with 10 nM DCX (without DCX: 0.59 [0.56, 0.63] µm/s) [3] | dwell time on MTs (median) [4] | landing rate on MTs [4] | dwell time on MTs (median) [5] | landing rate on MTs [5] | dwell time on MTs (median) [6] | landing rate on MTs [6] | dwell time on MTs (median) [7] | landing rate on MTs [7] | dwell time on MTs (median) [8] | landing rate on MTs [8] | Substance |
| --- | --- | --- | --- | --- | --- | --- | --- | --- | --- | --- | --- | --- | --- | --- |
| 42% | – | – | – | – | – | – | – | – | – | – | – | – | – | full-length human dynein complex (heavy chain with SNAP-tag, IC, LIC, Tctex, LC8, Robl) (from UniProt Q14204 1-4646; Q13409 1-638; O43237 1-492; P63172 1-113; P63167 1-89; Q9NP97 1-96) |
| – | 1.1 s | 2.1 | 0.55 µm/s | 1.3 s | 1.6 | 1.2 s | 1.1 | 1 s | 1.6 | 1.1 s | 1.4 | 1.4 s | 2.1 | tail-truncated single-headed human dynein (amino acids 1320-4646 of DYNC1H1), N-terminal GFP, Q14204 1320-4646 |
